B1: EP573 (clone 2021EP16-E02), E. coli-produced (ligand)
chain: APASSSTKKTQLQLEHLLLDLQMILNGINNYKNPKLTRMLTFKFYMPKKATELKHLQCLEEELKPLEEVLNLAQSKNFHLNRTDLVGDVNATIKALKGSETTFMCEYADETATIVEFLNRWITFSQSIISTLT
B2: EP575 (clone 2021EP16-D09), E. coli-produced (ligand)
chain: APASSSTKKTQLQLEHLLLDLQMILNGINNYKNPKLTRMLTFKFYMPKKATELKHLQCLEEELKPLEEVLNLAQSKNFHLRNKGILGDISNIVLALKGSETTFMCEYADETATIVEFLNRWITFSQSIISTLT
B3: EP576 (clone 2021EP21-C10), E. coli-produced (ligand)
chain: APASSSTKKTQLQLEHLLLDLQMILNGINNYKNPKLTRMLTFKFYMPKKATELKHLQCLEEELKPLEEVLNLAQSKNFHLLPRNKISKTKVMVHELKGSETTFMCEYADETATIVEFLNRWITFSQSIISTLT
B4: EP577 (clone 2021EP16-E05), E. coli-produced (ligand)
chain: APASSSTKKTQLQLEHLLLDLQMILNGINNYKNPKLTRMLTFKFYMPKKATELKHLQCLEEELKPLEEVLNLAQSKNFHLKAIAFISDLKVRVLDLKGSETTFMCEYADETATIVEFLNRWITFSQSIISTLT
B5: EP581 (clone 2021EP16-C10), E. coli-produced (ligand)
chain: APASSSTKKTQLQLEHLLLDLQMILNGINNYKNPKLTRMLTFKFYMPKKATELKHLQCLEEELKPLEEVLNLAQSKNFHLRSREVVSRIDAIILELKGSETTFMCEYADETATIVEFLNRWITFSQSIISTLT
B6: EP582 (clone 2021EP16-G10), E. coli-produced (ligand)
chain: APASSSTKKTQLQLEHLLLDLQMILNGINNYKNPKLTRMLTFKFYMPKKATELKHLQCLEEELKPLEEVLNLAQSKNFHLTHRDVISDVNVLALELKGSETTFMCEYADETATIVEFLNRWITFSQSIISTLT
B7: EP585 (clone 2021EP16-C03), E. coli-produced (ligand)
chain: APASSSTKKTQLQLEHLLLDLQMILNGINNYKNPKLTRMLTFKFYMPKKATELKHLQCLEEELKPLEEVLNLAQSKNFHLSPPDLIANMAVYFVELKGSETTFMCEYADETATIVEFLNRWITFSQSIISTLT
B8: EP658, EP575 back-mutation clone (ligand)
chain: APASSSTKKTQLQLEHLLLDLQMILNGINNYKNPLLTDMLTRKFYMPKKATELKHLQCLEEELKPLEEVLNLAQSKNFHLRPRGLISDISNIVLALKGSETTFMCEYADETATIVEFLNRWITFSQSIISTLT
notes: Mammalian-produced, His-tagged
B9: EP661, EP575 back-mutation clone (ligand)
chain: APASSSTKKTQLQLEHLLLDLQMILNGINNYKNPLLTDMLTRKFYMPKKATELKHLQCLEEELKPLEEVLNLAQSKNFHLRPKGLISNISNIVLALKGSETTFMCEYADETATIVEFLNRWITFSQSIISTLT
notes: as for B8
B10: EP662, EP575 back-mutation clone (ligand)
chain: APASSSTKKTQLQLEHLLLDLQMILNGINNYKNPLLTDMLTRKFYMPKKATELKHLQCLEEELKPLEEVLNLAQSKNFHLRPKGLISDINNIVLALKGSETTFMCEYADETATIVEFLNRWITFSQSIISTLT
notes: as for B8
B11: EP665, EP575 back-mutation clone (ligand)
chain: APASSSTKKTQLQLEHLLLDLQMILNGINNYKNPLLTDMLTRKFYMPKKATELKHLQCLEEELKPLEEVLNLAQSKNFHLRNRGLISDINNIVLALKGSETTFMCEYADETATIVEFLNRWITFSQSIISTLT
notes: as for B8
B12: EP668, EP575 back-mutation clone (ligand)
chain: APASSSTKKTQLQLEHLLLDLQMILNGINNYKNPLLTDMLTRKFYMPKKATELKHLQCLEEELKPLEEVLNLAQSKNFHLRPRGLIGDISNIVLALKGSETTFMCEYADETATIVEFLNRWITFSQSIISTLT
notes: as for B8
B13: EP669, EP575 back-mutation clone (ligand)
chain: APASSSTKKTQLQLEHLLLDLQMILNGINNYKNPLLTDMLTRKFYMPKKATELKHLQCLEEELKPLEEVLNLAQSKNFHLRPKGLISDISNIVLALKGSETTFMCEYADETATIVEFLNRWITFSQSIISTLT
notes: as for B8
B14: EP671, EP575 back-mutation clone (ligand)
chain: APASSSTKKTQLQLEHLLLDLQMILNGINNYKNPLLTDMLTRKFYMPKKATELKHLQCLEEELKPLEEVLNLAQSKNFHLRPKGLIGDINNIVLALKGSETTFMCEYADETATIVEFLNRWITFSQSIISTLT
notes: as for B8
B15: EP675, EP575 back-mutation clone (ligand)
chain: APASSSTKKTQLQLEHLLLDLQMILNGINNYKNPLLTDMLTRKFYMPKKATELKHLQCLEEELKPLEEVLNLAQSKNFHLRNKGLISNISNIVLALKGSETTFMCEYADETATIVEFLNRWITFSQSIISTLT
notes: as for B8

Tests used:
[1] = molecular target: T1, human IL2Rα Fc fusion protein (human, UniProt P01589 22-213, limits assumed); assay: ELISA, single concentration, anti-flag detection, E. coli-produced clone
T1 construct: also called CD25; not shown: Fc part
T1 sequence (looked up): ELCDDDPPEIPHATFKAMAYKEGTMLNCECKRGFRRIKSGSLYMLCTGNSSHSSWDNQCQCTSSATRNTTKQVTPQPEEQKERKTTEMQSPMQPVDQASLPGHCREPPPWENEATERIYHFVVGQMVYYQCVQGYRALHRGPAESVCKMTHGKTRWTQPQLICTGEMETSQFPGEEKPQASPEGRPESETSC
Method: (§1) Supernatants containing engineered IL2 mutants were assessed with sandwich ELISA assay to screen for IL2Rα binding. Briefly, 96-well plate was immobilized with human Fc and human IL2Rα, respectively, at a final concentration of 2 μg/mL in 1× PBS in total volume of 50 μL per well. The plate was incubated overnight at 4° C. followed by blocking with 200 μL of superblock per well for 1 hour. 100 μl of supernatant was added to both Fc and IL2Rα immobilized wells and incubated for 1 hour with shaking. The engineered IL2 mutant binding was detected by adding 50 μL of anti-Flag HRP diluted at 1:5000 in 1× PBST. In between each step, the plate was washed three times with 1× PBST in a plate washer. The plate was then developed with 50 μL of TMB substrate for five minutes and stopped by adding 50 μL of 2N sulfuric acid. The plate was read at OD450 nm using a Biotek plate reader and the binding and selectivity was analyzed.
as §1, with “Single clones were next screened for IL2Rβ binding. IL2Rβ binding screening ELISA was developed for the identification of individual” for “Supernatants containing”, “mutant.” for “mutants were assessed with sandwich ELISA assay to screen for IL2Rα binding.”, “IL2Rβ,” for “IL2Rα,”, “IL2Rβ” for “IL2Rα”
(§2) To further triage, the engineered IL2 clones with unique sequences were produced in E. coli. In short, the glycerol stock of each engineered agonist clone was inoculated into TB medium for overnight growth. The next day, cells from the overnight culture were inoculated into TB medium and grown to a cell density of OD₆₀₀ between 0.6-0.8. IPTG was added to a final concentration of 1 mM to induce the expression during culture at 30° C. overnight. The supernatant was collected by centrifugation.

[2] = molecular target: T2, human IL2Rβ Fc fusion protein (human, UniProt P14784 27-239); assay: as above
T2 construct: also called ILR2β; CD122; not shown: Fc part
T2 sequence (looked up): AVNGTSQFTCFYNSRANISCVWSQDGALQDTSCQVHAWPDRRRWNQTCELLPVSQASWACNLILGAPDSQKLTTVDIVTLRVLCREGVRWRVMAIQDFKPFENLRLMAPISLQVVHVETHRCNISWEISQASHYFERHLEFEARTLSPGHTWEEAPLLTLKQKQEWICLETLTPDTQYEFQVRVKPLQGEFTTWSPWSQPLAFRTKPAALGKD
Method: as §1
as §1, with “Single clones were next screened for IL2Rβ binding. IL2Rβ binding screening ELISA was developed for the identification of individual” for “Supernatants containing”, “mutant.” for “mutants were assessed with sandwich ELISA assay to screen for IL2Rα binding.”, “IL2Rβ,” for “IL2Rα,”, “IL2Rβ” for “IL2Rα”
as §2

[3] = molecular target: T1, human IL2Rα Fc fusion protein; assay: SPR (Biacore T200), receptor captured on Protein A chip, IL2 at 100 nM and 20 nM
Method: The assay was run with Biacore T200 control software version 2.0. For each cycle, 1 μg/mL of human IL2Rβ or IL2Rα was captured for 60 seconds at flow rate of 10 μL/min on flow cell 2 in 1× HBSP buffer on Protein A sensor chip. 100 nM and 20 nM of HIS tag purified engineered IL2 mutant was injected onto both reference flow cell 1 and IL2Rβ or IL2Rα captured flow cell 2 for 150 seconds at flow rate of 30 μL/min followed by washing for 300 seconds. The flow cells were then regenerated with Glycine pH 2 for 60 seconds at a flow rate of 30 μL/mins. The kinetics data was analyzed with Biacore T200 evaluation software 3000. The specific binding response unit was derived from subtraction of binding to reference flow cell 1 from target flow cell 2.

[4] = molecular target: T1, human IL2Rα Fc fusion protein; assay: ELISA on coated receptor-Fc, anti-His detection, single point 10 µM
Method: (§3) Back-mutations were characterized for their binding activities to IL2Rβ and IL2Rα receptors by ELISA. Briefly, 384 well plate was immobilized with human IL2Rα and IL2Rβ Fc fusion proteins at a final concentration of 2 μg/mL in 1× PBS in total volume of 25 μL per well. The plate was incubated overnight at 4° C. and blocked with 80 μL of superblock per well for 1 hour. […] The IL2 mutant binding was detected by adding 25 μL of anti-His HRP diluted at 1:5000 in 1× PBST. In between each step, the plate was washed three times with 1× PBST using a plate washer. […] The plate was then developed with 25 μL of TMB substrate for five minutes and stopped by adding 25 μl of 2N sulfuric acid. The plate was read at OD450 nm Biotek plate reader (Table 6) and the data was analyzed with Prism 8.1 software to generate bar graph (FIG. 5).

[5] = molecular target: T2, human IL2Rβ Fc fusion protein; assay: as above
Method: as §3

| Binder | OD450 nm [1] [OD450] | OD450 nm [2] [OD450] | Kd [3] [nM] | Average OD (450 nm) [4] [OD450] | Average OD (450 nm) [5] [OD450] |
| --- | --- | --- | --- | --- | --- |
| B1 | 1.58 | 0.07 | 55.1 |  |  |
| B2 | 1.25 | 0.057 | 98.2 |  |  |
| B3 | 0.361 | 1.12 | 143 |  |  |
| B4 | 0.771 | 0.149 | 956 |  |  |
| B5 | 0.88 | 0.127 | 106 |  |  |
| B6 | 1.08 | 0.337 | 151 |  |  |
| B7 | 0.614 | 0.583 | 4260 |  |  |
| B8 |  |  |  | 0.12 | 0.87 |
| B9 |  |  |  | 0.11 | 0.501 |
| B10 |  |  |  | 0.083 | 0.083 |
| B11 |  |  |  | 0.077 | 0.096 |
| B12 |  |  |  | 0.113 | 0.17 |
| B13 |  |  |  | 0.082 | 0.082 |
| B14 |  |  |  | 0.082 | 0.09 |
| B15 |  |  |  | 0.084 | 0.082 |
